Results from patent US20180022819A1 (APTEVO RESEARCH AND DEVELOPMENT, published 2018).

Target: prostate-specific membrane antigen (PSMA) (human, UniProt Q04609 1-750)
Test: cell-based or functional assay

Chain of prostate-specific membrane antigen (PSMA) (Q04609 whole entry): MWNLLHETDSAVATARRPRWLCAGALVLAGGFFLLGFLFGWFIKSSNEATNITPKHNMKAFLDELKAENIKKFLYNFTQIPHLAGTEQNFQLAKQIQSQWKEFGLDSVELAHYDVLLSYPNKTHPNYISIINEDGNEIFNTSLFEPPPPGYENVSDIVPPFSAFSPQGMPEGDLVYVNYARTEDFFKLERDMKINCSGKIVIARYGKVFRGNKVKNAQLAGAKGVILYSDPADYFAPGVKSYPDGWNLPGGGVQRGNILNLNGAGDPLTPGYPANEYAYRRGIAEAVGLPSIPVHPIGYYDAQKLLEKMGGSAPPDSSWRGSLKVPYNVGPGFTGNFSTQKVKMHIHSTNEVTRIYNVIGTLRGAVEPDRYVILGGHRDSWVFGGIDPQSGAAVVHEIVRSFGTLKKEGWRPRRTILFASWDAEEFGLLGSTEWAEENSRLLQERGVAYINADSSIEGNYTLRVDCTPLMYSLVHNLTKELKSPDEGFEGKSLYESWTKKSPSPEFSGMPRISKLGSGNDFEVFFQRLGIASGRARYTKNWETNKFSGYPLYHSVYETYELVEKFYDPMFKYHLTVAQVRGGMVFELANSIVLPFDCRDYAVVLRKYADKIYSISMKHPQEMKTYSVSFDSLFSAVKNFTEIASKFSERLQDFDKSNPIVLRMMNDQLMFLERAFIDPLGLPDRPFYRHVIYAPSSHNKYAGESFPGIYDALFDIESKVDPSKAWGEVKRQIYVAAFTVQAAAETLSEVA

B1: humanized TSC249 (huVL-VH#2 107-1A4 scFv-Fc-DRA222 scFv) (bispecific antibody)
chain: DIQMTQSPSAMSASVGDRVTITCRASKSISKYLAWFQQKPGKVPKLRIHSGSTLQSGVPSRFSGSGSGTEFTLTISSLQPEDFATYYCQQHIEYPWTFGQGTKVEIKRGGGGSGGGGSGGGGSQVQLVQSGAEVKKPGASVKVSCKASGYTFTDYYMHWVRQAPGQGLEWMGYFNPYNDYTRYAQKFQGRVTMTRDTSISTAYMELSSLRSDDTAVYYCARSDGYYDAMDYWGQGTTVTVSSSEPKSSDKTHTCPPCPAPEAAGAPSVFLFPPKPKDTLMISRTPEVTCVVVDVSHEDPEVKFNWYVDGVEVHNAKTKPREEQYNSTYRVVSVLTVLHQDWLNGKAYACAVSNKALPAPIEKTISKAKGQPREPQVYTLPPSRDELTKNQVSLTCLVKGFYPSDIAVEWESNGQPENNYKTTPPVLDSDGSFFLYSKLTVDKSRWQQGNVFSCSVMHEALHNHYTQKSLSLSPGQRHNNSSLNTGTQMAGHSPNSQVQLVESGGGVVQPGRSLRLSCKASGYTFTRSTMHWVRQAPGQGLEWIGYINPSSAYTNYNQKFKDRFTISADKSKSTAFLQMDSLRPEDTGVYFCARPQVHYDYNGFPYWGQGTPVTVSSGGGGSGGGGSGGGGSAQDIQMTQSPSSLSASVGDRVTMTCSASSSVSYMNWYQQKPGKAPKRWIYDSSKLASGVPARFSGSGSGTDYTLTISSLQPEDFATYYCQQWSRNPPTFGGGTKLQITSSS
EC50 of % live cells, GFP-LNCaP growth inhibition assay, 4 days with primary human T-cells (3:1): 15 pM | EC50 of % specific lysis, 51Cr release assay, 4 hours, untreated 22Rv1 target cells with donor T-cells (5:1): 0.8 pM
